Results taken from IntAct's records for PubMed 16467851.

B1: 1-phosphatidylinositol 4,5-bisphosphate phosphodiesterase gamma-1 (Bos taurus (Bovine)), P08487 (parent)
chain: MAGAASPCANGCGPSAPSDAEVVHLCRSLEVGTVMTLFYSKKSQRPERKTFQVKLETRQITWSRGADKIEGAIDIREIKEIRPGKTSRDFDRYQEDPAFRPDQSHCFVILYGMEFRLKTLSLQATSEDEVNMWIRGLTWLMEDTLQAATPLQIERWLRKQFYSVDRNREDRISAKDLKNMLSQVNYRVPNMRFLRERLTDLEQRTSDITYGQFAQLYRSLMYSAQKTMDLPFLEASALRAGERPELCRVSLPEFQQFLLEYQGELWAVDRLQVQEFMLSFLRDPLREIEEPYFFLDEFVTFLFSKENSIWNSQLDEVCPDTMNNPLSHYWISSSHNTYLTGDQFSSESSLEAYARCLRMGCRCIELDCWDGPDGMPVIYHGHTLTTKIKFSDVLHTIKEHAFVASEYPVILSIEDHCSIAQQRNMAQYFKKVLGDTLLTKPVDIAADGLPSPNQLKRKILIKHKKLAEGSAYEEVPTSVMYSENDISNSIKNGILYLEDPVNHEWYPHYFVLTSSKIYYSEETSSDQGNEDEEEPKEASGSTELHSNEKWFHGKLGAGRDGRHIAERLLTEYCIETGAPDGSFLVRESETFVGDYTLSFWRNGKVQHCRIHSRQDAGTPKFFLTDNLVFDSLYDLITHYQQVPLRCNEFEMRLSEPVPQTNAHESKEWYHASLTRAQAEHMLMRVPRDGAFLVRKRNEPNSYAISFRAEGKIKHCRVQQEGQTVMLGNSEFDSLVDLISYYEKHPLYRKMKLRYPINEEALEKIGTAEPDYGALYEGRNPGFYVEANPMPTFKCAVKALFDYKAQREDELTFTKSAIIQNVEKQEGGWWRGDYGGKKQLWFPSNYVEEMVSPAALEPEREHLDENSPLGDLLRGVLDVPACQIAVRPEGKNNRLFVFSISMASVAHWSLDVAADSQEELQDWVKKIREVAQTADARLTEGKMMERRKKIALELSELVVYCRPVPFDEEKIGTERACYRDMSSFPETKAEKYVNKAKGKKFLQYNRLQLSRIYPKGQRLDSSNYDPLPMWICGSQLVALNFQTPDKPMQMNQALFLAGGHCGYVLQPSVMRDEAFDPFDKSSLRGLEPCAICIEVLGARHLPKNGRGIVCPFVEIEVAGAEYDSIKQKTEFVVDNGLNPVWPAKPFHFQISNPEFAFLRFVVYEEDMFSDQNFLAQATFPVKGLKTGYRAVPLKNNYSEGLELASLLVKIDVFPAKQENGDLSPFGGASLRERSCDASGPLFHGRAREGSFEARYQQPFEDFRISQEHLADHFDGRDRRTPRRTRVNGDNRL
partner: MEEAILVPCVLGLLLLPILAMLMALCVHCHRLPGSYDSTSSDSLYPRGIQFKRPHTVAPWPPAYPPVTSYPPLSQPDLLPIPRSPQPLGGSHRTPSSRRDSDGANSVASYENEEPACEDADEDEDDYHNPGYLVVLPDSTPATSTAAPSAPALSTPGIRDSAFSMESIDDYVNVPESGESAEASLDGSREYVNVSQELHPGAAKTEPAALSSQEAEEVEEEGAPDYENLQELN
B2: 1-phosphatidylinositol 4,5-bisphosphate phosphodiesterase gamma-1 (Bos taurus (Bovine)), P08487 (parent)
chain: B1 chain
partner: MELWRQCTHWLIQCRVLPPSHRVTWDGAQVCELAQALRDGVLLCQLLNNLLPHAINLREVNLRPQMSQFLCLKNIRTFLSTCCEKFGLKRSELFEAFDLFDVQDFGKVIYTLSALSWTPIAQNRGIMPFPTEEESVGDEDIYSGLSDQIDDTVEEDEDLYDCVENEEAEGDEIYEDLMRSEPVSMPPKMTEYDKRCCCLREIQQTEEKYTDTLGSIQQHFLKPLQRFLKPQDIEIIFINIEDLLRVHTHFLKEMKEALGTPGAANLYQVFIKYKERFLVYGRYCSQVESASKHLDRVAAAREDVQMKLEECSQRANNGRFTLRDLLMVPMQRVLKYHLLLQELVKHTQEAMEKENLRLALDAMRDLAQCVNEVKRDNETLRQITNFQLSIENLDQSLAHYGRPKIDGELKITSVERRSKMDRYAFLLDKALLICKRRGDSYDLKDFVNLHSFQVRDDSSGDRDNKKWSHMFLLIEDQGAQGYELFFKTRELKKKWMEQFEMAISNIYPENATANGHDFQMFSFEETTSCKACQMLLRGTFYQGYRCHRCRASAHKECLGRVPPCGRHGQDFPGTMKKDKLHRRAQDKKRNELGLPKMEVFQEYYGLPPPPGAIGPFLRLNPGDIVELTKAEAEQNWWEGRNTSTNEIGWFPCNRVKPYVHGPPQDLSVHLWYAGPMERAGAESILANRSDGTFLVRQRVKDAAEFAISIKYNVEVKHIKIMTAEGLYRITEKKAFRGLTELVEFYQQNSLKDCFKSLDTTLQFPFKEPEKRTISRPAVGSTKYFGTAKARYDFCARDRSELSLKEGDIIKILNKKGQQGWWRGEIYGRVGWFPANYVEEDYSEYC
B3: 1-phosphatidylinositol 4,5-bisphosphate phosphodiesterase gamma-1 (Bos taurus (Bovine)), P08487 (parent)
chain: B1 chain
B4: 1-phosphatidylinositol 4,5-bisphosphate phosphodiesterase gamma-1 (Bos taurus (Bovine)), P08487 (parent)
chain: B1 chain
partner: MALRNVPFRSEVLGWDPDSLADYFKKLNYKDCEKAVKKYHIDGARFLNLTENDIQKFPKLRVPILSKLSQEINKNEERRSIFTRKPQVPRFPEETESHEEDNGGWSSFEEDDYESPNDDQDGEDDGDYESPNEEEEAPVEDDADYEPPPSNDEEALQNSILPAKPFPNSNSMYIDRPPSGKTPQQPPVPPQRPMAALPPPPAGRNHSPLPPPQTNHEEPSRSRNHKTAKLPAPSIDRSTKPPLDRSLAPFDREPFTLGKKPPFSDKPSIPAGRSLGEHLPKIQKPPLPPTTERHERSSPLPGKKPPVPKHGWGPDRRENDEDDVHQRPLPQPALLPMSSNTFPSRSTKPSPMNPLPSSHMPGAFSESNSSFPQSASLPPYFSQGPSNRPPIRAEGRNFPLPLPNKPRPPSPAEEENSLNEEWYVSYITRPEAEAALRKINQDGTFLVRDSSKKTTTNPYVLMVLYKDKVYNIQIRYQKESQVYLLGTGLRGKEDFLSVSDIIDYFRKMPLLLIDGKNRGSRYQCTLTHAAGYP

Variants of: B1
Details: with LAT
For R586K, the “effect of a mutation on the interaction” value was “disrupting interaction”.

Variants of: B1
Details: with LAT
Remark: another data set of the same source
For R694K, the “effect of a mutation on the interaction” value was “disrupting interaction”.
R696K was tested, and the “effect of a mutation on the interaction” value was “disrupting interaction”.
P842K was tested, and the “effect of a mutation on the interaction” value was “disrupting interaction”.

Variants of: B2
Details: with vav_human VAV1, P15498
In the case of R696K, the “effect of a mutation on the interaction” value is reported as “disrupting interaction”.
For R694K, the “effect of a mutation on the interaction” value was “disrupting interaction”.

Variants of: B2
Details: with vav_human VAV1, P15498
Remark: another data set of the same source
In the case of R586K, the “effect of a mutation on the interaction” value is reported as “disrupting interaction”.

Variants of: B2
Details: with vav_human VAV1, P15498
Remark: another data set of the same source
For P842K, the “effect of a mutation on the interaction” value was “disrupting interaction”.

Variants of: B3
Details: with cbl_human CBL
In the case of P842K, the “effect of a mutation on the interaction” value is reported as “disrupting interaction”.

Variants of: B4
Details: with lcp2_human LCP2, Q13094
For R586K, the “effect of a mutation on the interaction” value was “disrupting interaction”.

Variants of: B4
Details: with lcp2_human LCP2, Q13094
Remark: another data set of the same source
P842K was tested, and the “effect of a mutation on the interaction” value was “disrupting interaction”.

Variants of: B4
Details: with lcp2_human LCP2, Q13094
Remark: another data set of the same source
With R694K the “effect of a mutation on the interaction” value was “disrupting interaction”.
For R696K, the “effect of a mutation on the interaction” value was “disrupting interaction”.
